The chains are these.
T1: synthetic (γ-D-Glu)5 (not fully specified (residues 1, 2, 3, 4, 5))
T1 peptide: EEEEE

B1: mAb F26G3 IgG1 subclass switch variant (antibody, V domains shown)
VH: EVQLVESGGGLVQPKGSLKLSCAASGFTFNTYAMNWVRQAPGKGLEWVARIRSKSNNYATYYADSVKDRFTISRDDSQSMLYLQMNNLKTEDTAMYYCVRGYYGWDYWGQGTSVTVSS
VL: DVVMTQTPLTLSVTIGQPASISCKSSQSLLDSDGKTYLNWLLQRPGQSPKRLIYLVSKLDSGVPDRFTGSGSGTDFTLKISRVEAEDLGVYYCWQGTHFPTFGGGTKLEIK
B2: mAb F24F2 IgG2a subclass switch variant (antibody, V domains shown)
VH: B1 VH with Y102L, Y103R, G104Y, W105L, S113T, V114L
VL: not shown
B3: mAb F24F2 IgG1 subclass switch variant (antibody, V domains shown)
VH: B1 VH with Y102L, Y103R, G104Y, W105L, S113T, V114L
VL: not shown
B4: mAb F24F2 IgG2b subclass switch variant (antibody, V domains shown)
VH: B1 VH with Y102L, Y103R, G104Y, W105L, S113T, V114L
VL: not shown
B5: mAb F26G3 IgG2a subclass switch variant (antibody, V domains shown)
VH: B1 VH
VL: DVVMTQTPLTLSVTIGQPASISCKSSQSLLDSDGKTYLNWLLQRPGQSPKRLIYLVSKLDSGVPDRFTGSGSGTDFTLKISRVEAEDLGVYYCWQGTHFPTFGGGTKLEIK
B6: mAb F26G3 IgG2b subclass switch variant (antibody, V domains shown)
VH: B1 VH
VL: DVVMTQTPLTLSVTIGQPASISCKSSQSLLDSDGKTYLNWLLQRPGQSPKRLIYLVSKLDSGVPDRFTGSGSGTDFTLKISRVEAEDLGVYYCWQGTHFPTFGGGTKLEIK

Numbering of substitutions follows the chain as printed. No end group written: not given here.

This experiment addresses T1, synthetic (γ-D-Glu)5.
In the case of B1, the dissociation constant Kd was 13 µM.

For B2, the dissociation constant Kd amounted to 18 µM. On to B3, for which the Kd came to 18 µM. In other words, the double-digit micromolar range. B4 yielded a Kd of 9 µM.

B5 yielded a Kd of 45 µM. Compared with the last molecule, the Kd is about 5-fold higher.

Consider B6, for which binding was put at a Kd of 6.7 µM.

The term Kd denotes the constant that tells how readily two partners part at equilibrium. Lower therefore signals a tighter complex.

The values are drawn from article PMC3630167 (2013).
